Laboratory results from PMC6131546, “Interaction of TBC1D9B with Mammalian ATG8 Homologues Regulates Autophagic Flux” (Scientific Reports, 2018).

Molecular target: T1, FLAG-TBC1D9Bα from a stable HEK293 cell line (human, UniProt Q66K14-1 1-1250)
T1 construct: human TBC1D9B, alpha splice form, in pcDNA3.1-FLAG; also called FLAG-tagged recombinant TBC1D9B; source: purified (anti-FLAG M2 beads, eluted with glycine HCl) for the pull-down; in lysate for the co-IP
Experiment: pull-down; GST fusion on glutathione-sepharose beads, incubated with recombinant FLAG-TBC1D9B or His-LC3B at 4 °C for 1 hour; 20 mM Tris pH 7.4, 0.1 mM EDTA, 100 mM NaCl; SDS-PAGE with Coomassie Brilliant Blue
Conditions: both partners purified

T1 sequence (Q66K14 whole entry, canonical isoform): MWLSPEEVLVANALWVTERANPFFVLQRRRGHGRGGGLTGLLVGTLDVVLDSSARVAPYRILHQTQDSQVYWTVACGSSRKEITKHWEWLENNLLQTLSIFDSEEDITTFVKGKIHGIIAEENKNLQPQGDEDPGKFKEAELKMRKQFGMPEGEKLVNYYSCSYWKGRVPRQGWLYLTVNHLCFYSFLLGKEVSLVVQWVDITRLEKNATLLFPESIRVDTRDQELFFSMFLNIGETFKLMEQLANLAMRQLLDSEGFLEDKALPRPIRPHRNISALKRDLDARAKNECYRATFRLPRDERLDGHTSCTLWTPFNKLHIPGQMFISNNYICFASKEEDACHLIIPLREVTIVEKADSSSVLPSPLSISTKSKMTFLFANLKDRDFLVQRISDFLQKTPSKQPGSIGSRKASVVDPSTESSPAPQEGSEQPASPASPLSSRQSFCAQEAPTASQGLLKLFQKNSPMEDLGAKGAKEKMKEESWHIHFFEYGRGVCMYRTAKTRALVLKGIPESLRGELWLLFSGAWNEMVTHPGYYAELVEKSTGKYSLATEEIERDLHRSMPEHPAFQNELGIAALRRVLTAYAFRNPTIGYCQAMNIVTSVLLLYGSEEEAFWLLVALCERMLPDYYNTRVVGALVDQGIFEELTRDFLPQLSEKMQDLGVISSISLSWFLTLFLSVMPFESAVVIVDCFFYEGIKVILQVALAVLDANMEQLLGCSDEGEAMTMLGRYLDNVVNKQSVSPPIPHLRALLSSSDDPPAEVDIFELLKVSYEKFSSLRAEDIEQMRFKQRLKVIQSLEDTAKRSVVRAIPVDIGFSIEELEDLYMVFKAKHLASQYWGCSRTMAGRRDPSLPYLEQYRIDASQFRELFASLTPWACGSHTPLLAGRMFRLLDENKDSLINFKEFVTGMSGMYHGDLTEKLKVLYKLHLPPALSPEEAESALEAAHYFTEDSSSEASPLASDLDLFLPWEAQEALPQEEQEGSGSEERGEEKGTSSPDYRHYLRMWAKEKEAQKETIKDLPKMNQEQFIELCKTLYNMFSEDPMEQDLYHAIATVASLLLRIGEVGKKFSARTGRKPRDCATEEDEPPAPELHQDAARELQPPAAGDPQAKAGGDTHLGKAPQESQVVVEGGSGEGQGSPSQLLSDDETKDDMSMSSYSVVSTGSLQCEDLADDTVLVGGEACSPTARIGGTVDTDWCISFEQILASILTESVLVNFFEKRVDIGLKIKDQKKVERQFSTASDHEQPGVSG

B1: recombinant GST-GABARAP (natural protein, human, UniProt O95166 1-117, looked up)
chain: MKFVYKEEHPFEKRRSEGEKIRKKYPDRVPVIVEKAPKARIGDLDKKKYLVPSDLTVGQFYFLIRKRIHLRAEDALFFFVNNVIPPTSATMGQLYQEHHEEDFFLYIAYSDESVYGL
notes: human GABARAP, cloned into pGEX-6p; also called GST-fused GABARAP; source: E. coli BL21, purified (glutathione-sepharose)
  binding result: binds
